Results on 3 molecules are retold here after article PMC4525382, “Functional characterization and expression analysis of rice δ^1-pyrroline-5-carboxylate dehydrogenase provide new insight into the regulation of proline and arginine catabolism” (Frontiers in Plant Science, 2015).

In data set [1] the target is rice P5C dehydrogenase, truncated version lacking the predicted mitochondrial transit peptide (Oryza sativa (rice)). The data set is described as follows: SEC; gel permeation on Superose 12 HR 10/30; 100 uL of purified protein at 0.5 mg/mL; 50 mM Tris-HCl pH 7.75, 250 mM NaCl (same pattern from 250 mM to 1 M NaCl); column calibrated with mass markers; six runs. (In general: Size exclusion chromatography separates by hydrodynamic size, large species first.)

The target of data set [2] is T1, rice P5C dehydrogenase (OsP5CDH) (Oryza sativa, UniProt B9FLB9).
T1 construct: gene Os05g0536400; mature form lacking the 16-residue predicted mitochondrial transit peptide; N-terminal His6 tag (pET151, TEV-cleavable; tag without effect); E. coli BL21(DE3) pLysS; monomer 57,670 Da; homotetramer 259 kDa
T1 sequence (B9FLB9 17-550): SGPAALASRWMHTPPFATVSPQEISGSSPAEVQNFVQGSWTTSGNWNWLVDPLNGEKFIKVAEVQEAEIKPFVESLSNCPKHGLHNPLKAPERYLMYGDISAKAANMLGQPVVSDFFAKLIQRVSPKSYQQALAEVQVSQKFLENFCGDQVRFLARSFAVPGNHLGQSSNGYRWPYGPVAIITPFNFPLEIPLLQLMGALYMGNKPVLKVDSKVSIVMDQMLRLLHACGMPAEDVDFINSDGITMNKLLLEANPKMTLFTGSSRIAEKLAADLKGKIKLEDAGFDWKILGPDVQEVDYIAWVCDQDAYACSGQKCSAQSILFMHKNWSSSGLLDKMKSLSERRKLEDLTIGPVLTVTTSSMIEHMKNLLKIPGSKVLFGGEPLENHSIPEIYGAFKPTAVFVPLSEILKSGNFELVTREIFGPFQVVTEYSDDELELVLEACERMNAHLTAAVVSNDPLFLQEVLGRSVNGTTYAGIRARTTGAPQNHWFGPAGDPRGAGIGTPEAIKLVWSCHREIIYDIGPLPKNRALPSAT
Description: NAD(P)H absorbance at […] nm, non-linear regression. Type of data set: biochemical.

Data set [3] concerns the target T1, rice P5C dehydrogenase (OsP5CDH). Description: NAD(P)H absorbance at […] nm, kinetic analysis. Type of data set: biochemical.
Substrate in data set [4]: NC(=O)c1ccc[n+]([C@@H]2O[C@H](COP(=O)(O)OP(=O)(O)OC[C@H]3O[C@@H](n4cnc5c(N)ncnc54)[C@H](OP(=O)(O)O)[C@@H]3O)[C@@H](O)[C@H]2O)c1
The data set is described as follows: purified protein. Type of data set: biochemical, Oryza sativa. As to conditions: 1 mM L-P5C, 50 mM Hepes-KOH pH 7.5, 35 °C, varied: cofactor.

Substrate in data set [5]: NC(=O)c1ccc[n+]([C@@H]2O[C@H](COP(=O)(O)OP(=O)(O)OC[C@H]3O[C@@H](n4cnc5c(N)ncnc54)[C@H](O)[C@@H]3O)[C@@H](O)[C@H]2O)c1
Description: purified protein. The class given is biochemical, Oryza sativa. As to conditions: 1 mM L-P5C, 50 mM Hepes-KOH pH 7.5, 35 °C, varied: cofactor.

Substrate in data set [6]: O=C(O)[C@@H]1CCC=N1
Description: purified protein. The class given is biochemical, Oryza sativa. The settings on record: 10 mM NAD+ co-substrate, 50 mM Hepes-KOH pH 7.5, 35 °C.

Usually stoichiometry N stands for a count of units in the complex or per binding partner. Consider “rice P5C dehydrogenase, truncated version lacking the predicted mitochondrial transit peptide (enzyme)”, for which the stoichiometry N in data set [1] is 4.
As usually defined, the IC50 is the concentration at which inhibition is half-maximal. By Ki is commonly meant a dissociation constant, usually derived from enzyme kinetics or from competition with a known ligand. Read a high Ki as lower affinity. With `N=C(N)NCCC[C@H](N)C(=O)O` [arginine], the IC50 in data set [2] stood at 87 ± 11 mM. In data set [3], the affinity corresponds to a Ki of 62.3 ± 2.4 mM.

B1: rice P5C dehydrogenase (OsP5CDH) (Oryza sativa Japonica Group) (protein)
chain: T1 sequence (B9FLB9 17-550)
notes: mature form lacking the 16-residue predicted mitochondrial transit peptide; N-terminal His6 tag (pET151, TEV-cleavable; tag without effect); E. coli BL21(DE3) pLysS; monomer 57,670 Da; homotetramer 259 kDa
Usually Km stands for the concentration of substrate that gives half-maximal velocity. For orientation: kcat means the maximal rate divided by the concentration of active sites. As to B1, in data set [4], the Michaelis-Menten constant (Km) was 4695 ± 462 µM, the Vmax was 49.2 ± 1.7 nkat (mg protein)^−1 and the kcat came to 3 s⁻¹. Moreover, in data set [5], the Km came to 644 ± 30 µM, the Vmax was 196.9 ± 2.1 nkat (mg protein)^−1 and the kcat is 12 s⁻¹. Moreover, the Km in data set [6] amounted to 358 ± 14 µM.
